According to article PMC3763555 (Nucleic Acids Research, 2013):
Residue numbers refer to the chain shown, from its start. Numbers in names are those of the source.

Tests used:
[1] = target: T1, Deinococcus radiodurans RecO, N-terminal hexa-histidine tag (Deinococcus radiodurans, UniProt Q9RW50 1-244); assay: crystal structure
T1 sequence (looked up): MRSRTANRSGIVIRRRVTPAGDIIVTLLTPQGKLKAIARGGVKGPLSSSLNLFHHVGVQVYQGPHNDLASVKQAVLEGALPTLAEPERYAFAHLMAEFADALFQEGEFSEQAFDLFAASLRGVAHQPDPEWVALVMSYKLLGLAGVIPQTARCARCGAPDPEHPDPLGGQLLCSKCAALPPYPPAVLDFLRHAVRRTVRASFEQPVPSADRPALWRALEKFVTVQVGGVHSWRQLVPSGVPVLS

crystal structure = target: the molecule itself; assay: crystal structure
[2] = target: T2, Deinococcus radiodurans RecO, C-terminal hexa-histidine tag (Deinococcus radiodurans, UniProt Q9RW50 1-244); assay: SAXS
T2 sequence (looked up): T1 sequence (looked up)

SAXS = target: the molecule itself; assay: SAXS
drRecO Q59E;drRecR = target: T3, drRecO Q59E;drRecR (Deinococcus radiodurans;Deinococcus …, UniProt Q9RW50;Q9ZNA2 1-244;1-220, Q59E|); assay: fluorescence anisotropy
T3 sequence 1: T1 sequence (looked up) with Q59E
T3 sequence 2: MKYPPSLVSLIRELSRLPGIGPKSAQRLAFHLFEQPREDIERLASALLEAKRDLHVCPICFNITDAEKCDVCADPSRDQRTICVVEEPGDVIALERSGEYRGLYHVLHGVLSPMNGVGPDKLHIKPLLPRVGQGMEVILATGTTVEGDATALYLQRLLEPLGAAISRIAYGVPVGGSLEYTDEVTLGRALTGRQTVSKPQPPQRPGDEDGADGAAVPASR

drRecO = target: T4, drRecO (Deinococcus radiodurans, UniProt Q9RW50 1-244); assay: fluorescence anisotropy
T4 sequence: T1 sequence (looked up)

drRecO;drRecR K23E/R27E = target: T5, drRecO;drRecR K23E/R27E (Deinococcus radiodurans;Deinococcus …, UniProt Q9RW50;Q9ZNA2 1-244;1-220, |K23E;R27E); assay: fluorescence anisotropy
T5 sequence 1: T1 sequence (looked up)
T5 sequence 2: T3 sequence 2 with K23E, R27E

drRecR = target: T6, drRecR (Deinococcus radiodurans, UniProt Q9ZNA2 1-220); assay: fluorescence anisotropy
T6 sequence: T3 sequence 2

drRecO K43E/K72E;drRecR = target: T7, drRecO K43E/K72E;drRecR (Deinococcus radiodurans;Deinococcus …, UniProt Q9RW50;Q9ZNA2 1-244;1-220, K43E;K72E|); assay: fluorescence anisotropy
T7 sequence 1: T1 sequence (looked up) with K43E, K72E
T7 sequence 2: T3 sequence 2

drRecO K72E/Q73E;drRecR = target: T8, drRecO K72E/Q73E;drRecR (Deinococcus radiodurans;Deinococcus …, UniProt Q9RW50;Q9ZNA2 1-244;1-220, K72E;Q73E|); assay: fluorescence anisotropy
T8 sequence 1: T1 sequence (looked up) with K72E, Q73E
T8 sequence 2: T3 sequence 2

B1: Deinococcus radiodurans RecR K23A/R27A double mutant (natural protein, UniProt Q9ZNA2 1-220, looked up)
chain: T3 sequence 2 with K23A, R27A
- binding result [1]: binds
- stoichiometry N (crystal structure): 4

B2: Deinococcus radiodurans RecR, full length, C-terminal hexa-histidine tag (natural protein, UniProt Q9ZNA2 1-220, looked up)
chain: T3 sequence 2
- binding result [2]: binds

B3: Deinococcus radiodurans RecR, full length, without tag (natural protein, UniProt Q9ZNA2 1-220, looked up)
chain: T3 sequence 2
- stoichiometry N (SAXS): 2

Binder: TTTTTTTTTTTTTTTTTTTTTTTTTTTTTTTTTTTTTTTTTTTTTTTTTT (ssDNA) [50mer poly(dT) ssDNA]
- binding result (drRecO Q59E;drRecR): no binding
- Kd (drRecO): 8.7 µM
- binding result (drRecO;drRecR K23E/R27E): no binding
- binding result (drRecR): no binding
- binding result (drRecO K43E/K72E;drRecR): binds
- binding result (drRecO K72E/Q73E;drRecR): binds

B4: 50mer dsDNA (dsDNA)
DNA 1: GACTACGTACTGTTACGGCTCCATCTCTACCGCAATCAGGCCAGATCTGC
DNA 2: GCAGATCTGGCCTGATTGCGGTAGAGATGGAGCCGTAACAGTACGTAGTC
- binding result (drRecO Q59E;drRecR): no binding
- binding result (drRecO;drRecR K23E/R27E): no binding
- binding result (drRecR): no binding
